{"source": "paper doi:10.1101/2024.01.30.575082", "about": "(bioRxiv, 2024)", "target": "the molecule itself", "assay": "crystal structure", "data": [{"protein": "Shethna Protein II (FeSII) from Azotobacter vinelandii (natural protein, UniProt Q44501 1-122, looked up) MATIYFSSPLMPHNKKVQAVAGKRSTLLGVAQENGVKIPFECQDGNCGSCLVKITHLDGERIKGMLLTDKERNVLKSVGKLPKSEEERAAVRDLPPTYRLACQTIVTDEDLLVEFTGEPGGA", "values": [{"measurement": "binding result", "result": "binds"}]}]}
